Measured values from article PMC6351565, “Mechanism of IRSp53 inhibition by 14-3-3” (Nature Communications, 2019).
Where no end group is shown, it is not given here. [ ]: non-standard residue; d: D form. pT = C[C@@H](OP(=O)(O)O)[C@H](N)C(=O)O; pS = N[C@@H](COP(=O)(O)O)C(=O)O

T1: 14-3-3θ (human, UniProt P27348 1-245)
T1 construct: 14-3-3θ, human, UniProt P27348; also called 14-3-3 theta; 14-3-3τ
T1 sequence: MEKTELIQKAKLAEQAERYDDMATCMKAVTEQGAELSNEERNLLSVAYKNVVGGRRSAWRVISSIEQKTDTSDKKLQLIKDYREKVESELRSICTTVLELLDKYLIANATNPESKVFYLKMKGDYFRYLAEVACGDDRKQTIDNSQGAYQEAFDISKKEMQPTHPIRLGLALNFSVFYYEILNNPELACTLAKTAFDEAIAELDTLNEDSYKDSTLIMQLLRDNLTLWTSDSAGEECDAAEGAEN

T2: IRSp53-FLAG (wild type), natively phosphorylated (human (from the printed UniProt entry), UniProt Q9UQB8-4 1-521, phosphorylated in HEK293T cells at S325, T340, T360, S366 and a residue within 452SSST455, most likely S454 (mass spectrometry of the purified 14-3-3-binding-competent fraction))
T2 construct: also called pIRSp53; WT IRSp53-FLAG; source: HEK293T, transfected, in lysate; not shown: FLAG, C-terminal, kept
T2 sequence (looked up): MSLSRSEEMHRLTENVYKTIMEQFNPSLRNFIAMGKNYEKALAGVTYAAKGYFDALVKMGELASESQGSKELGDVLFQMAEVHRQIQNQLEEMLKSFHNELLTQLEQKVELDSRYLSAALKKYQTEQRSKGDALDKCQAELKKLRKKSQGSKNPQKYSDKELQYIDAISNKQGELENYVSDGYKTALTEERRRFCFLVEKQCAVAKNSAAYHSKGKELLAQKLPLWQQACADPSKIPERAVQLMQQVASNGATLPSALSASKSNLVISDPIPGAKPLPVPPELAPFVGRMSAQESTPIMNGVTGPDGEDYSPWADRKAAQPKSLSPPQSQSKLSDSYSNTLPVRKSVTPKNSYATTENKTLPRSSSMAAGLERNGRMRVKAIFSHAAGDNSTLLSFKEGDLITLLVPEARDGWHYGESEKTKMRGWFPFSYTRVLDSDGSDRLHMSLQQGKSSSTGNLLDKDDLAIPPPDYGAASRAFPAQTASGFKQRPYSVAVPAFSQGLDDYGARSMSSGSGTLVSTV

B1: pIRSp53FS (natural protein, human (from the printed UniProt entry), UniProt Q9UQB8-4 1-521, looked up)
chain: MSLSRSEEMHRLTENVYKTIMEQFNPSLRNFIAMGKNYEKALAGVTYAAKGYFDALVKMGELASESQGSKELGDVLFQMAEVHRQIQNQLEEMLKSFHNELLTQLEQKVELDSRYLSAALKKYQTEQRSKGDALDKCQAELKKLRKKSQGSKNPQKYSDKELQYIDAISNKQGELENYVSDGYKTALTEERRRFCFLVEKQCAVAKNSAAYHSKGKELLAQKLPLWQQACADPSKIPERAVQLMQQVASNGATLPSALSASKSNLVISDPIPGAKPLPVPPELAPFVGRMSAQESTPIMNGVTGPDGEDYSPWADRKAAQPKSLSPPQSQSKLSDSYSNTLPVRKSVTPKNSYATTENKTLPRSSSMAAGLERNGRMRVKAIFSHAAGDNSTLLSFKEGDLITLLVPEARDGWHYGESEKTKMRGWFPFSYTRVLDSDGSDRLHMSLQQGKSSSTGNLLDKDDLAIPPPDYGAASRAFPAQTASGFKQRPYSVAVPAFSQGLDDYGARSMSSGSGTLVCTV
modifications: natively phosphorylated in HEK293T cells; fluorescein maleimide / rhodamine maleimide on C230 and C519
notes: IRSp53 (BAIAP2), isoform-4, UniProt Q9UQB8-4, full length, S519C; Expressed and purified as m4; also called IRSp53 FRET sensor; phosphorylated IRSp53 (mutant S519C)
B2: Site 2 peptide (pT340) (peptide)
chain: Ac-LSDSYSN[pT]LPVRKS-NH2
SMILES: CC(=O)N[C@@H](CC(C)C)C(=O)N[C@@H](CO)C(=O)N[C@@H](CC(=O)O)C(=O)N[C@@H](CO)C(=O)N[C@@H](Cc1ccc(O)cc1)C(=O)N[C@@H](CO)C(=O)N[C@@H](CC(N)=O)C(=O)N[C@H](C(=O)N[C@@H](CC(C)C)C(=O)N1CCC[C@H]1C(=O)N[C@H](C(=O)N[C@@H](CCCNC(=N)N)C(=O)N[C@@H](CCCCN)C(=O)N[C@@H](CO)C(N)=O)C(C)C)[C@@H](C)OP(=O)(O)O
B3: Site 3 peptide (pT360) (peptide)
chain: Ac-ATTENK[pT]LPRSSS-NH2
SMILES: CC(=O)N[C@@H](C)C(=O)N[C@H](C(=O)N[C@H](C(=O)N[C@@H](CCC(=O)O)C(=O)N[C@@H](CC(N)=O)C(=O)N[C@@H](CCCCN)C(=O)N[C@H](C(=O)N[C@@H](CC(C)C)C(=O)N1CCC[C@H]1C(=O)N[C@@H](CCCNC(=N)N)C(=O)N[C@@H](CO)C(=O)N[C@@H](CO)C(=O)N[C@@H](CO)C(N)=O)[C@@H](C)OP(=O)(O)O)[C@@H](C)O)[C@@H](C)O
B4: Sites 2,4 peptide (pT340/pS366) (peptide)
peptide: Ac-DSYSN[pT]LPVRKSVTPKNSYATTENKTLPRSS[pS]MAAGLE-NH2
SMILES: CSCC[C@H](NC(=O)[C@H](COP(=O)(O)O)NC(=O)[C@H](CO)NC(=O)[C@H](CO)NC(=O)[C@H](CCCNC(=N)N)NC(=O)[C@@H]1CCCN1C(=O)[C@H](CC(C)C)NC(=O)[C@@H](NC(=O)[C@H](CCCCN)NC(=O)[C@H](CC(N)=O)NC(=O)[C@H](CCC(=O)O)NC(=O)[C@@H](NC(=O)[C@@H](NC(=O)[C@H](C)NC(=O)[C@H](Cc1ccc(O)cc1)NC(=O)[C@H](CO)NC(=O)[C@H](CC(N)=O)NC(=O)[C@H](CCCCN)NC(=O)[C@@H]1CCCN1C(=O)[C@@H](NC(=O)[C@@H](NC(=O)[C@H](CO)NC(=O)[C@H](CCCCN)NC(=O)[C@H](CCCNC(=N)N)NC(=O)[C@@H](NC(=O)[C@@H]1CCCN1C(=O)[C@H](CC(C)C)NC(=O)[C@@H](NC(=O)[C@H](CC(N)=O)NC(=O)[C@H](CO)NC(=O)[C@H](Cc1ccc(O)cc1)NC(=O)[C@H](CO)NC(=O)[C@H](CC(=O)O)NC(C)=O)[C@@H](C)OP(=O)(O)O)C(C)C)C(C)C)[C@@H](C)O)[C@@H](C)O)[C@@H](C)O)[C@@H](C)O)C(=O)N[C@@H](C)C(=O)N[C@@H](C)C(=O)NCC(=O)N[C@@H](CC(C)C)C(=O)N[C@@H](CCC(=O)O)C(N)=O
notes: IRSp53 stretch of 29-40 residues that holds T340 and S366; source: synthetic peptide (Dr. Paul Leavis, Tufts University)
B5: Sites 2,3 peptide (pT340/pT360) (peptide)
peptide: Ac-DSYSN[pT]LPVRKSVTPKNSYATTENK[pT]LPRSSS-NH2
SMILES: CC(=O)N[C@@H](CC(=O)O)C(=O)N[C@@H](CO)C(=O)N[C@@H](Cc1ccc(O)cc1)C(=O)N[C@@H](CO)C(=O)N[C@@H](CC(N)=O)C(=O)N[C@H](C(=O)N[C@@H](CC(C)C)C(=O)N1CCC[C@H]1C(=O)N[C@H](C(=O)N[C@@H](CCCNC(=N)N)C(=O)N[C@@H](CCCCN)C(=O)N[C@@H](CO)C(=O)N[C@H](C(=O)N[C@H](C(=O)N1CCC[C@H]1C(=O)N[C@@H](CCCCN)C(=O)N[C@@H](CC(N)=O)C(=O)N[C@@H](CO)C(=O)N[C@@H](Cc1ccc(O)cc1)C(=O)N[C@@H](C)C(=O)N[C@H](C(=O)N[C@H](C(=O)N[C@@H](CCC(=O)O)C(=O)N[C@@H](CC(N)=O)C(=O)N[C@@H](CCCCN)C(=O)N[C@H](C(=O)N[C@@H](CC(C)C)C(=O)N1CCC[C@H]1C(=O)N[C@@H](CCCNC(=N)N)C(=O)N[C@@H](CO)C(=O)N[C@@H](CO)C(=O)N[C@@H](CO)C(N)=O)[C@@H](C)OP(=O)(O)O)[C@@H](C)O)[C@@H](C)O)[C@@H](C)O)C(C)C)C(C)C)[C@@H](C)OP(=O)(O)O
notes: IRSp53 stretch of 29-40 residues that holds T340 and T360; also called doubly-phosphorylated IRSp53 peptide Sites 2,3; source: synthetic peptide (Dr. Paul Leavis, Tufts University)
B6: Site 4 peptide (pS366) (peptide)
chain: Ac-TLPRSS[pS]MAAGLEK-NH2
SMILES: CSCC[C@H](NC(=O)[C@H](COP(=O)(O)O)NC(=O)[C@H](CO)NC(=O)[C@H](CO)NC(=O)[C@H](CCCNC(=N)N)NC(=O)[C@@H]1CCCN1C(=O)[C@H](CC(C)C)NC(=O)[C@@H](NC(C)=O)[C@@H](C)O)C(=O)N[C@@H](C)C(=O)N[C@@H](C)C(=O)NCC(=O)N[C@@H](CC(C)C)C(=O)N[C@@H](CCC(=O)O)C(=O)N[C@@H](CCCCN)C(N)=O
B7: MBP-14-3-3θ (natural protein, human, UniProt P27348 1-245, looked up)
chain: MEKTELIQKAKLAEQAERYDDMATCMKAVTEQGAELSNEERNLLSVAYKNVVGGRRSAWRVISSIEQKTDTSDKKLQLIKDYREKVESELRSICTTVLELLDKYLIANATNPESKVFYLKMKGDYFRYLAEVACGDDRKQTIDNSQGAYQEAFDISKKEMQPTHPIRLGLALNFSVFYYEILNNPELACTLAKTAFDEAIAELDTLNEDSYKDSTLIMQLLRDNLTLWTSDSAGEECDAAEGAEN
notes: also called MBP-tagged 14-3-3θ; source: E. coli BL21(DE3), purified (amylose resin, SEC)

Experiments:
Details in all cases: both partners purified
[1] = molecular target: T1, 14-3-3θ; experiment: ITC; peptide in the syringe (100 μM singly, 50 μM doubly phosphorylated) titrated into 10 μM 14-3-3θ in the cell; 20 °C; 20 mM HEPES pH 7.5, 150 mM NaCl, 1 mM MgCl2, 0.1 mM TCEP; single-site model
[2] = molecular target: T3, 2xFLAG-Eps8 (human, UniProt Q12929 1-822); experiment: other fluorescence titration; intramolecular FRET sensor (fluorescein/rhodamine on C230 and C519 of IRSp53); Cdc42, Eps8 and/or 14-3-3θ titrated into the sensor, also back to back; 20 °C; 25 mM Tris-HCl pH 7.5, 150 mM NaCl, 1 mM MgCl2, 5% glycerol, 0.1 mM TCEP; observed Kd (Kobs) from the fits
T3 construct: Eps8, human, UniProt Q12929, full length; also called FLAG-tagged Eps8

[3] = molecular target: T1, 14-3-3θ; experiment: SEC-MALS; 14-3-3θ (4 mg/mL) pre-incubated 2 h at 20 °C with Site 2 (two peptides per dimer) or Sites 2,4 (one peptide per dimer); TSKgel SuperSW2000
[4] = molecular target: T2, IRSp53-FLAG (wild type), natively …; experiment: pull-down; 14-3-3θ-affinity column: MBP-14-3-3θ bound to amylose resin; FLAG-eluted IRSp53-FLAG loaded; eluted with 200 μM Sites 2,3 peptide

T3 sequence (Q12929 whole entry): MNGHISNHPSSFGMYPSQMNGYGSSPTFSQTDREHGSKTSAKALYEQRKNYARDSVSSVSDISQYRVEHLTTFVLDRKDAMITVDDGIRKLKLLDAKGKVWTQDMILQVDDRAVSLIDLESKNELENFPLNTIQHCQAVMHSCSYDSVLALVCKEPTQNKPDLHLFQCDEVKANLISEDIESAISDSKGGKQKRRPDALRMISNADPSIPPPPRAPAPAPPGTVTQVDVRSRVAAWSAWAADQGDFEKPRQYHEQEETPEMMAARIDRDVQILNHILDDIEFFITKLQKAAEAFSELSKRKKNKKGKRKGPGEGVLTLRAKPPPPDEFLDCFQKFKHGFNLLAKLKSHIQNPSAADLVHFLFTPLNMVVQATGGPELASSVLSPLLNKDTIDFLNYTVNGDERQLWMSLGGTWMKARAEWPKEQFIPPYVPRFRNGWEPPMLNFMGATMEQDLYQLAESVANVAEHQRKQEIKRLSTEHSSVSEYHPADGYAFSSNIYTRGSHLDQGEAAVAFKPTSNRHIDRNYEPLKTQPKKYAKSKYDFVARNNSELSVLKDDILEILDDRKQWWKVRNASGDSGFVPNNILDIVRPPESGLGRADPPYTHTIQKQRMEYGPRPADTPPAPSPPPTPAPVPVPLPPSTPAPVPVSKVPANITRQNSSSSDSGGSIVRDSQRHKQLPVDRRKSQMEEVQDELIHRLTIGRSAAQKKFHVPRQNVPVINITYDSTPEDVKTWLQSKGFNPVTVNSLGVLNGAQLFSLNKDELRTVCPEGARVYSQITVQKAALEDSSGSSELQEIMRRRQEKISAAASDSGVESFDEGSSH

Row | Binder | Kd [1] [nM] | stoichiometry N [1] | other results
1 | Ac-QQGKSSSTGNLLD-NH2 (also: phosphoserine at S454, which serine of the chain is not given here) [Site 5 peptide (pS454)] | 12000 | ~1 peptide per 14-3-3θ subunit (two peptides per 14-3-3θ dimer) | –
2 | B1 | – | – | Kd [2]: 42 nM
3 | B2 | – | ~1 peptide per 14-3-3θ subunit (two peptides per 14-3-3θ dimer) | stoichiometry N [3]: 1 peptide per 14-3-3θ subunit
4 | B3 | – | ~1 peptide per 14-3-3θ subunit (two peptides per 14-3-3θ dimer) | –
5 | B4 | 67 | ~0.5 peptide per 14-3-3θ subunit (one peptide per 14-3-3θ dimer) | stoichiometry N [3]: 0.5 peptide per 14-3-3θ subunit
6 | B5 | 45 | ~0.5 peptide per 14-3-3θ subunit (one peptide per 14-3-3θ dimer) | –
7 | B6 | – | ~1 peptide per 14-3-3θ subunit (two peptides per 14-3-3θ dimer) | –
8 | B7 | – | – | binding result [4]: binds
9 | AQPKSL[pS]PPQSQSKLSDSYSN[pT]LPVRKS [Sites 1,2 peptide (pS325/pT340)] | – | ~1 peptide per 14-3-3θ subunit | –
